# Assay results: article PMC2821926, “Carboxy Terminal Tail of Polycystin-1 Regulates Localization of TSC2 to Repress mTOR” (PLoS ONE, 2010)
# T1: GST-14-3-3β (UniProt P31946 1-246)
# T1 construct: 14-3-3 beta; also called 14-3-3 proteins; source: E. coli DH5α (pGEX), batch-purified on glutathione Sepharose 4B beads
# T1 sequence (looked up): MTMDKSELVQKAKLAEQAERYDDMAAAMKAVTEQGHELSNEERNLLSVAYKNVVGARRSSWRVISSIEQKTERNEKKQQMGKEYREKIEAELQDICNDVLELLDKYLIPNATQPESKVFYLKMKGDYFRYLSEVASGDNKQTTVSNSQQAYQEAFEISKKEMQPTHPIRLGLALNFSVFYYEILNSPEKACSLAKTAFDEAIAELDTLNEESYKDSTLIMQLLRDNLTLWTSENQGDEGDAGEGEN
# B1: tuberous sclerosis complex 2 (TSC2) tumor suppressor (natural protein)
# chain: not shown
# notes: TSC2 (tuberin), endogenous in HEK-293 cells; also called tuberin; source: endogenous, HEK-293 lysate
# Biological target: T1, GST-14-3-3β
# Experiment: pull-down; 10 µg GST-14-3-3β on glutathione Sepharose 4B beads mixed with 300 µg protein of lysates of HEK-293 cells expressing CD44-CP1 or Flag-CP1, overnight at 4°C; washed thrice in PBS; immunoblot with anti-TSC2
# Conditions: one partner purified
binder,measurement,value
B1,fold enhanced binding in Flag-CP1 expressing cells relative to cells expressing CD44-CP1,~2 fold
